Columns and labels:
Details in all cases: protein: ivt; chain copies: 2; label: 32P
Zta (BZLF1, ZEBRA, EB1) [1] = molecular target: T1, Zta (BZLF1, ZEBRA, EB1) (Epstein-Barr virus (B95-8 strain), UniProt P03206 1-245); test: EMSA; EMSA with wheat germ in vitro translated Zta and 32P-labelled ds oligonucleotides; buffer, salt, pH and temperature not given (as in ref 39)
Zta (BZLF1, ZEBRA, EB1) [2] = molecular target: T1, Zta (BZLF1, ZEBRA, EB1); test: EMSA; CpG methylated; EMSA with wheat germ in vitro translated Zta and 32P-labelled ds oligonucleotides; buffer, salt, pH and temperature not given (as in ref 39)
Zta (BZLF1, ZEBRA, EB1) [3] = molecular target: T1, Zta (BZLF1, ZEBRA, EB1); test: EMSA; unmethylated; class III; EMSA with wheat germ in vitro translated Zta and 32P-labelled ds oligonucleotides; buffer, salt, pH and temperature not given (as in ref 39)

T1 sequence (P03206 whole entry): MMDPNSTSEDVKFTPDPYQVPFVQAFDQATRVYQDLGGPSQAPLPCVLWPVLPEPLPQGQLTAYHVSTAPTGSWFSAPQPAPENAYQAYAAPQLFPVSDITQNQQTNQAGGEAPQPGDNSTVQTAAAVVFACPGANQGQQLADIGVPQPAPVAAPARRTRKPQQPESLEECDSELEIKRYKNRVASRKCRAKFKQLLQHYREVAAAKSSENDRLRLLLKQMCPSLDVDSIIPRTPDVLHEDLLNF

B1: Zp (-96) (dsDNA)
DNA 1: TAAATTTAGGTGTGTCTATGAGGTACA
DNA 2: TGTACCTCATAGACACACCTAAATTTA
Zta (BZLF1, ZEBRA, EB1) [1]
  binding result: binds

B2: Rp (-114) / CpG5 O, methylated (dsDNA)
DNA 1: CACTCATACTTAAGCGATGCTGATGCA
DNA 2: TGCATCAGCATCGCTTAAGTATGAGTG
modifications: 5mC at CpG, both strands (M.SssI or synthesis)
Zta (BZLF1, ZEBRA, EB1) [2]
  binding result: binds

B3: Rp (-114) / CpG5 O, unmethylated (dsDNA)
DNA 1: CACTCATACTTAAGCGATGCTGATGCA
DNA 2: TGCATCAGCATCGCTTAAGTATGAGTG
Zta (BZLF1, ZEBRA, EB1) [3]
  binding result: no binding

— paper PMC3191170, “Epigenetic Control of Viral Life-Cycle by a DNA-Methylation Dependent Transcription Factor”
